From article PMC11772326

B1: ZmSWEET10 MBS 40 bp probe (dsDNA)
DNA 1: TCCCGGCCCTGTGCTGATAACTGTCTCTCTTTATTACGTG
DNA 2: CACGTAATAAAGAGAGACAGTTATCAGCACAGGGCCGGGA
B2: ZmSWEET13c MBS 40 bp probe (dsDNA)
DNA 1: ATGCTGTATTGAGTCCCCCGTTGTCGGAAATTAAAATTAT
DNA 2: ATAATTTTAATTTCCGACAACGGGGGACTCAATACAGCAT
B3: ZmLHT14 MBS 40 bp probe (dsDNA)
DNA 1: GCGGTGCCGGAGTAGATAACTGGTACTACAAAACACAATA
DNA 2: TATTGTGTTTTGTAGTACCAGTTATCTACTCCGGCACCGC
B4: ZmMYB42 promoter GTAC 40 bp probe (dsDNA)
DNA 1: TAACAAGGGCTTAACATGGTACGGTTTATTATATGTCAGA
DNA 2: TCTGACATATAATAAACCGTACCATGTTAAGCCCTTGTTA
B5: ZmMYB63 promoter GTAC 40 bp probe (dsDNA)
DNA 1: AAGTTTTGCGCACAGTGGTACGGAGGCGGACTGCTCCAAT
DNA 2: ATTGGAGCAGTCCGCCTCCGTACCACTGTGCGCAAAACTT

Tests used:
ZmMYB42 = ZmMYB42 (Zea mays, UniProt K7V4N7 1-264); assay: EMSA
ZmUB3 = target: T1, ZmUB3 (Zea mays, UniProt A0A804P0G2 1-407); assay: EMSA
T1 sequence: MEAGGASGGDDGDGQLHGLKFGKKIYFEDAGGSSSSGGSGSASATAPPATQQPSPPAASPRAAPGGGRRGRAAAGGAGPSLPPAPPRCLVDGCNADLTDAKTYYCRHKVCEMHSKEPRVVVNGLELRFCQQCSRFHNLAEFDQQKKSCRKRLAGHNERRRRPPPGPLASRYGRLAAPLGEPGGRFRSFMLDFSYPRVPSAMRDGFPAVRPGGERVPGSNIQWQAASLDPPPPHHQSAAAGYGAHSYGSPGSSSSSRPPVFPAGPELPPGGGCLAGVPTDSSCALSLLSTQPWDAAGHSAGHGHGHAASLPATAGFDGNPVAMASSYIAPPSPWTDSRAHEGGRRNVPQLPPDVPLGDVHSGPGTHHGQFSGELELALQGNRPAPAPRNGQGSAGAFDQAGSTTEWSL

| Binder | binding result (ZmMYB42) | binding result (ZmUB3) |
| --- | --- | --- |
| B1 | binds |  |
| B2 | binds |  |
| B3 | binds |  |
| B4 |  | binds |
| B5 |  | binds |
